# Data: patent US9687591B2, “Building stratified biomimetic tissues and organs using crosslinked ultrashort peptide hydrogel membranes” (Agency for Science, Technology and Research, priority 2010, dated 2017)
# “Also recorded” adds a separate entry of the source. Ends that are not written are not given here. Peptide text beside a SMILES is read from it.
# Key:
# [1] = Kinetics of disulfide formation, oxidation by air (Ellman's assay); type: physicochemical; settings: 12 mM in water, capped tubes, room temperature, after 5 days
# Description: For oxidation by air, LK6C dissolved in water at 12 mM was left in capped micro-centrifuge tubes at room temperature. […] H2O2-assisted oxidation was much more efficient in the formation of disulfide bridges.
# (§1) For air oxidation, LK6C was dissolved in MilliQ water by vigorous vortexing for five minutes and dispensed into 20 μL aliquots. At appropriate time points, 180 μL of DTNB (Sigma, Singapore) working solution (4 mg/mL in 0.1M phosphate buffer pH 7.0) was mixed with the peptide solution for 15 minutes. Absorbance at 412 nm was then measured (InfiniteM200, Tecan, Switzerland). Using a calibration curve generated with L-cysteine (Sigma) as standard (R^2=0.999), the background-subtracted value was normalised to the reading at 0 hour to give the % of thiol remaining. For H2O2-assisted oxidation, LK6C was dissolved in water (HPLC grade, J. T. Baker, N.J., USA) containing 0.06% H2O2 (Merck, Sinagpore) and dispensed into aliquots. At appropriate time points, the aliquots were analysed using an Aquity® UPLC (Waters, USA) fitted with a single-quadrupole MS. Using a calibration curve generated with pure LK6C as standard (R^2=0.999), the area under the peak corresponding to LK6C monomer was normalised to that at 0 hour to give the % of thiol remaining.
# [2] = Kinetics of disulfide formation, H2O2-assisted oxidation (UPLC); type: physicochemical; settings: 12 mM in water containing 0.06% H2O2, after 1 day
# Description: Only ˜50% of thiols remained after 1 day. The R^2 value of the thiol calibration curve was 1.000.
# as §1
# skins of guinea pigs = test: Direct contact Kligman maximization test (GLP, ISO 10993-10); type: in vivo; settings: GLP study by CRO Toxikon
# V79 = test: Direct contact V79 colony assay (GLP); type: cell-based; settings: GLP study by CRO Toxikon
# [3] = Oscillation rheology of cysteine-containing peptide gels (stiffness G', LVE limit); type: physicochemical
# Excerpt: Oscillatory rheology was used to quantify the stiffness of IVKC gels formed in the presence of varying amount of H2O2 in PBS. Elastic modulus, G′, was plotted against angular frequency, ω (FIG. 45). As already mentioned in FIG. 41, the G′ value increased tremendously after crosslinking with 0.06% H2O2 in PBS. Further increasing the amount of H2O2 increased the G′ values even more. For instance, gels cross-linked completely with 0.2% H2O2 in PBS achieved a G′ value of nearly 1 MPa. This level of stiffness was not achieved before. Hereafter, IVKC gels will be prepared in the presence of 0.2% H2O2 in PBS. Data here was reported as average of 4 samples±standard deviation.
# Rheology: The rheological properties of casted gels were measured with an ARES-G2 (TA Instruments, USA) using the oscillation method. Frequency-sweep studies were performed with ω=0-100 rad/s at strain, γ=0.1%. The gel stiffness was represented by plotting G′ against ω. Amplitude-sweep studies were performed beforehand at 1 Hz with γ=0-100%. The LVE limit of the gel was defined as the value of γ when G′ first dropped below 90% of the average initial value.
# The rheological properties of casted gels were measured with an ARES-G2 (TA Instruments, USA) using the oscillation method. Frequency-sweep studies were performed with ω=0-100 rad/s at strain, γ=0.1%. The gel stiffness was represented by plotting G′ against ω. […]
# [4] = Extent of crosslinking of IVKC by UPLC; type: physicochemical; settings: 24 hours
# Description: (§2) The crosslinking density of IVKC could be further modulated with H2O2 content. Ultra performance liquid chromatography (UPLC) was used to study the extent of crosslinking in IVKC after oxidation with varying amount of H2O2 in PBS for 24 hours. […] At 0.2% H2O2 in PBS for instance, IVKC was 100% crosslinked and none of the monomers remained.
# as §2, with “can” for “could”, “be” for “be further”, “hours (FIG. 43). In the absence of H2O2, IVKC remained mostly as monomers (>96%).” for “hours.”, “cross-linked” for “crosslinked”
# The crosslinking density of Ac-IVKC was modulated by varying the concentration of H2O2 (0-0.2%). The amount of monomeric (retention time-2.40 mins) and dimeric (˜2.67 mins) species were then quantified with ultra-performance liquid chromatography (UPLC) after incubation in the various H2O2 concentration for 24 hours at room temp (FIG. 43).
# [5] = test system: Human corneal endothelial cells (HCEC); test: Biocompatibility of cross-linked IVKC gels, calcein staining; type: cell-based; settings: gels cross-linked with 0.2% H2O2 in PBS for 24 hours and purified
# Description: To test the biocompatibility of cross-linked IVKC gels, a sensitive primary cell type was seeded onto the gels. IVKC gels were cross-linked with 0.2% H2O2 in PBS for 24 hours and excess H2O2 was purified from the gel using a dialysis-inspired method (as described in WO 2014/116187).
# To test the biocompatibility of cross-linked IVKC gels, a sensitive primary cell type was seeded onto the gels. IVKC gels were cross-linked with 0.2% H2O2 in PBS for 24 hours and excess H2O2 was purified from the gel using a dialysis-inspired method reported previously, see e.g. WO 2014/116187. Human corneal endothelial cells (HCEC, a kind gift from Singapore Eye Research Institute) freshly derived from human donor corneas were then seeded onto the gel and maintained in culture.
# [6] = Water soak of casted gels (shape retention / degradation); type: physicochemical; settings: not oxidised, 24 hours of water soak
# Description: Peptide was dissolved in 200 μL of water+/−H2O2 and filled into custom-made hollow ring casts (diameter ˜1 cm). The ring ends were sealed with parafilm to minimise evaporation and the cast was kept at 25° C. for 22 hours before further manipulations.
# LK6 or LK6C gels were first casted and then soaked in water for various durations. […] These observations are also supported by rheological measurements (FIG. 28). Therefore, the strategy of disulfide crosslinking has increased the resistance of the gel to degradation and has made it possible to use the gel at a lower concentration compared to previous formulations. This, in turn, will translate into significant cost savings.
# [7] = Concentration needed for gelation; type: physicochemical
# Description: FIG. 18A illustrates the determination of a suitable gelation concentration with the LK6 control peptide sequence. A working concentration was established that was suitably low so as to save on material during testing but yet, capable of forming gels strong enough to be manipulated. LK6 gels were therefore casted at different concentrations and their stiffness was measured (average±s.d. of triplicates). As expected, G′ values increased with peptide concentration and it was determined that a working concentration of 12 mM afforded gels with sufficient mechanical integrity to withstand handling.
# The present invention as defined above offers significant improvements in material properties such as stiffness, elasticity and resistance of the gel to degradation compared to previous disclosures—ultra-small peptide-based and peptide/polymer-based hydrogels. Reactive chemical groups are also introduced to the peptide fibers which allow the facile in-situ chemical conjugation of biological signals. Furthermore, compared to previous formulations, less material is now needed for gelation (e.g. 10 mg/ml LK6C instead of 25 mg/ml for LK6), which translates into significant cost savings and higher water contents. This class of material is suitable for biomedical applications, for example but not limited to, three-dimensional cell culture, tissue engineering, sensing and drug and gene delivery.
compound,measurement,setting,value
"CC[C@H](C)[C@H](NC(=O)[C@H](CC(C)C)NC(C)=O)C(=O)N[C@H](C(=O)N[C@@H](C)C(=O)NCC(=O)N[C@@H](CCCCN)C(=O)N[C@@H](CS)C(=O)O)C(C)C [LK6C, LIVAGKC] (Ac-LIVAGKC-OH)",% of thiols remaining,[1],~80%
same,% of thiols remaining,[2],~50%
same,skin sensitization,skins of guinea pigs,no sensitization
same,toxicity,V79,no significant toxicity
Ac-IVKC,increase of stiffness after oxidative crosslinking,[3]; 0.06% H2O2 in PBS,close to two orders
same,"stiffness, elastic modulus G'",[3]; gels crosslinked completely with 0.2% H2O2 in PBS,~1 MPa
same,crosslinked fraction,[4]; 0.2% H2O2 in PBS,100%
same,monomer content,"[4]; absence of H2O2, PBS",> 96%
same,duration cells remained viable (positive calcein staining),[5],at least ten days
LIVAGK (L-form) [LK6],gel state after water soak,[6],did not survive; also recorded: completely degraded
same,concentration needed for gelation,[7],25000 µg/mL
